Molecular target: Homer1, Q9Z214-1
Sequence (Q9Z214 whole entry): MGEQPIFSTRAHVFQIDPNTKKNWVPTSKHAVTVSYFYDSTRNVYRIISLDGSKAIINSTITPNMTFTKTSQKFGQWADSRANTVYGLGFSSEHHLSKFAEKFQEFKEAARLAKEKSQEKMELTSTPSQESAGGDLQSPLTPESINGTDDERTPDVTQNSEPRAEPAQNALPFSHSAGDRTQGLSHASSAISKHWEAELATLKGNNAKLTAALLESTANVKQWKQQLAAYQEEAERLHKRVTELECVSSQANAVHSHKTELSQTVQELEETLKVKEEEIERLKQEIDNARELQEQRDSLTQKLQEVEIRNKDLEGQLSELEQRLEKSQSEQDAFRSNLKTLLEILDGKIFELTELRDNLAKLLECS

Arf-GAP with GTPase, ANK repeat and PH domain-containing protein 2 (Rattus norvegicus (Rat)), Q8CGU4 P187L
effect of a mutation on the interaction: disrupting interaction
